Reference: the DeepSol protein solubility set

Assay: soluble on expression in E. coli; label from the status in PepcDB or PDB records

Soluble on expression in E. coli, not soluble:
MGSDKIHHHHHHMKVLHLIDSGGLYGAERMLLALVAEQIQQGLEPMILSAGEQGIHQKPLEIEAEKLGLPLVVWRMTPGLNYPETRKICEWAEHWGVDLVHSHGYKFNILMSLFSRFSRKVPVVSTLHGYVHAPRFSRMWVYELLDRLAISRLDGVIMVGAAMKKELSTGLIRPRRLTTIRNGLAVDDTQRKATEPLPEALEEFFSTHEPVILGVGRLSKEKGFSHLVDSFREIKQSAPKAGLLIVGDGMLRKDLEDQVARLGLGSDVCLPGYCDNVPALMARSSALVISSSTEGLPITLLEAMAVRLPVVSTDVGEISFVLDEGDSGVLVKDPASELVDAIELVLNETEATHRKTEQAFHKVSGELSARSMAEQYLRVYNGVVAS, MGSDKIHHHHHHMKVLIITNLFPLNNNSNSGIFVVQRLRHYKSFNVNLDTISLGHHNSKIASLLEKLLRGHSNKKTLEEVENVKFYPVSIEINLLRLIKYGLLRNYFTVLCKEYKKMIEEAFNLNEYDLIHAHGMYSVPAGLTAKILAEKYRKPFIVTLHGSDVNLFMPHRKEIYVSILESASATIFVSKALLEKAKSLGFSGKNAVVIPNGYDETIFKPMDKEAVRKELGIHREGYKYVGFVGNLIPIKRADKLGEIFHLIAKEIPETFFIIVGDGPLRKKIEKETKGLNIIFTGRLPQKDVAKYMNAMDVMVLPSRNEGWPCVILEAQACGTCVIGSSNRGIPEAIGFPEYVVEEGDQFEERFARRVVEVLNEGYDVNRILERAKGFTWRNIVEKEIDVHKRVVLKS, MGSDKIHHHHHHMKVLQFNQDATCCVVAASSHQISIFNCDPFGKCFEIDTKNSKKKTSNNNGSASNSESRNNEESILITNGSRDRTDAEEEEDNEDNALVTGNILKEGEFVIEMLFSTSLIAIADRGQGLNKGKKLKIVNTKRKCTICEIVFPHEIVDVVMNRKRMCVLLESDQIFIYDISCMKPLETIDLWEDHYKRSQANSFSNASNTGTLEGDSANLNRVATNLLANATQKSVNGSNPSVRTRRNSLRSKIRPRMVLSNDDRSILCFTAYSSPKKNKPNSEALYDVVIYDTLNVTPVNYLNSVHKGNVACLAVSHDGKLLATASDKGTIIRVFHTGVDSDYMSSRSLFKEFRRGTRLCNLYQLAFDKSMTMIGCVGDTDTIHLFKLDDASNSLPGDNSSNGHWNEEEYILASNSNPSMGTPKEIPLSKPRIANYFSKKIKSSIPNQNLSRNFAYITVNESNRSCLGFPDEFPNQVYIASDDGTFSIYSIPSKPGECVLTKNNKFT, MGSDKIHHHHHHMKVNILMSTYNGQEFIAQQIQSIQKQTFENWNLLIRDDGSSDETPKIIADFAKSDARIRFINADKRENFGVIKNFYTLLKYEKADYYFFSDQDDVWQPQKLELTLASVEKENNQIPLMVYTDLTVVDRDLQVLHDSMIKTQSHHANTSLLEELTENTVTGGTMMVNHCLAKQWKQCYDDLIMHDWYLALLAASLGKLIYLDETTELYRQHESNVLGARTWSKRLKNWLRPHRLVKKYWWLVTSSQQQASHLLELDLSAANKAIIQAYVTLLDQSFLNRIKWLKQYGFAKNRAFHTFVFKTLIITKFGYRRK, MGSDKIHHHHHHMKVSADIGALVERRKQGYSLEAPFYQSEEIFALDMEAIFRKHWIQVAVEPDVPEPGDYITVELGHDSILVVRDDDMQVRAFHNVCRHRGARLCNEDKGTVGNIVCPYHSWTYNLTGDLMFAEHMGEKFDRCKHSLKSVHVQNLAGLIFVCLADEPPADFAAMRAAMEPYLLPHDLPNTKIAAQVDIIEEGNWKLTMENNRECYHCVANHPELTISLYEYGFGYQQSPANAEGMEAFEKTCIARAAQWEALNLPSAEIERLLERTGFRTQRLPLDRSGESQTLDAKVASKKLLGKFEQADLGGLSFWTQPNSWHHFMSDHIVTFSVIPLSAGKTLVRTKWLVHKDAQEGVDYDVANLTAVWNATNDQDRVLVEYSQRGSASSAYEPGPYSPFTEGLVEKFSAWYIRRLAEHVGA, MGSDKIHHHHHHMKWYADYLSIYDKPFTQAPQAVINQVKDKVRQLATHAPLVSVVAIAHNEEKRILSCLWSLCENQHNYPVEILVINNHSTDHTEEVLKELGVTYFNEYRKGPGFARQCGLNHARGKYHLCIDADTLYPPQYISTMIKVLQDKEVAGAYALWSFLPNEHHLGLFFYETLRDLYLKIQNLNRPELNVRGMAFAFHTETARKEGFRTDILRGEDGSLALALKKYGKLRFVTARKARVLTGYGTISADGSLFSSFKKRAIKGLRSFTALFYSKNNYEDEDSNLIK, MGSDKIHHHHHHMKYLLLIPDGMADWEVEELDGRTPLEVAETENMDFLAKEGACGIAKTVPDGFEPGSDVANLTILGVDVRKHYTGRGPIEALARGVKGKLVFRCNLVKVEDGVMVDYSGGRISDEEARKVIEELNRAKPYDFVKFYAGKSYRNLLVINKDFRDDVKTFPPHDITGKEIDKHLPSGGELAELLKELMGWSAEILPEITDKANMIWPWGGGRMPSFPNFGQRYGLRGAMITEVDLLEGIARGMGMEVVQVEGITGYIDTNYRGLVRETARALEEHDFVVLHTEGIDEVGHEGDAELKVRAIELYDSKIVGKLLNKVDLDETRILLLPDHPTPVKVKTHVAEPVPFTLYGRGRDEVKVYTEKSCRRGKFGLVDGLRLMDLLIKK, MGSDKIHHHHHHMLAICQLVKMKRICFYLKMQKGYMALNKKLKGDGEVLKDSFLAGAGKAKIVFSQDDFPIKQFTGIHDNLYIRVLLIDSNQRFAFVSIDLTSLTKDRIDFYKSLIHQLTSIDEGNIWVSVTHTFSAPHIPLESQKDDEEKIISMMLFKTSAALREAINQALLSMKPADIGFSYSSCPLNINRNIPTRLGWWLGRNDDGYSNHDVRTVTLKQENNEIISILYNFDVQASVMDNVSTKSGELLISSDLVGKASSDIENTFGKNSVAIFLPGSAGDQAPIFKGSNWKIMKNNRLVCSSIHEEAYSLVDQLGVKLSQSVQRAVFKTEKFADNCEIKINHYSVYLPEQRVKYSTKALRPSKKYQFEKPVIHFLSLLIFCT, MGSDKIHHHHHHMLCAISGKVPRRPVLSPKSRTIFEKSLLEQYVKDTGNDPITNEPLSIEEIVEIVPSAQQASLTESTNSATLKANYSIPNLLTSLQNEWDAIMLENFKLRSTLDSLTKKLSTVMYERDAAKLVAAQLLMEKNEDSKDLPKSSQQAVAITREEFLQGLLQSSRDFVARGKLKAPKWPILKNLELLQAQNYSRNIKTFPYKELNKSMYYDKWVCMCRCEDGALHFTQLKDSKTITTITTPNPRTGGEHPAIISRGPCNRLLLLYPGNQITILDSKTNKVLREIEVDSANEIIYMYGHNEVNTEYFIWADNRGTIGFQSYEDDSQYIVHSAKSDVEYSSGVLHKDSLLLALYSPDGILDVYNLSSPDQASSRFPVDEEAKIKEVKFADNGYWMVVECDQTVVCFDLRKDVGTLAYPTYTIPEFKTGTVTYDIDDSGKNMIAYSNESNSLTIYKFDKKTKNWTKDEESALCLQSDTADFTDMDVVCGDGGIAAILKTNDSFNIVALTP, MGSDKIHHHHHHMLDKRAQILLKTLIEHYISDGQPVGSRKLSVASGLDLSPASIRNIMSELEDHGFIASPHTSAGRIPTQRGYRLFVDTLLTVQPLQNQEIRKLENVLSSPDPQELINKAAELLSSLTHFAGLVMIPKRQGAAFRHLEFLPLSEKRILVIIVTTDGAVQNRIILAEKPYSASDLTQASNFFNQHYAGNTLDEVKQKLHEELKQMQSDMTRLMAAALEASSKTADNKDGVVIAGKRNLLDVQDLSTNVSSLRKLFEMFEHRTSLMQLLDQSQKASGVQIFIGGESGYLPLDECSMVTAPYETNGQTIGTLGVIGPTRMAYERVIPIVDITAKLLSNALSNNH, MGSDKIHHHHHHMLDQQHIQYFKNLVGGEDFFTDLAHLNAYCYDATKERHLPSGVIFPKNEQEISQILKYCNEHRIIVVPRGAGSGFTGGALSVSGGLVLSVEKHLDKILEIDTKNLIARVEPGVINKHFQNEVEKLNLFYPPDPASENQSTLGGNVAENAGGMRAAKYGITKDYVMALRVVLANGEIIRAGKKTIKDVAGFNVAGLMIASEGCLGVISEITLKLLAKPPLKQSAMGVFNHIEDAMNAVYKTMSSGVTPVAMEFLDNLSIKAVEERFSKGLPKDAGAILITQVDGVVKEQIAWQLNEIEKHFKANCCVDFKIAQNEQEEQDLWFSRRNASQSISVYGKKKLNEDVTVPRASLPSLLQEVAKISQKYGFKIPCFGHTGDGNVHVNIMLEDPKRDLEKGHEAMEEIFQAAISLEGTLSGEHGIGLSKAKFMPLAFNHSEMELFRNIKKALDPNNILNPFKMGL, MGSDKIHHHHHHMLDSYIKRIVIHQFSPNDTELLLSDRLVSITPRIDEYFRKKLAKVFSDEAKRGQFEANNTFFTTIGDDLLETSVTIAQLWKEAFVISEDQKTNDLVFVQFDKDGEPFFAFLRIALKEQFAHLSDNYEHPFTVTQNNLPSPTQTPDEALVINLKSGQYYLIEKRVKHNGSFANYFSEHLLKVTPEQSVKKSIKMIEQTAQKIAEHFNQDDFTFQSKMKSTLFKQLEADDVLSPEKLADQLFDDNLTARLTFVDQVKDVIPEPIKISDIEHSRQIKKLENQKLSLSNGIELTVPNAIYQDAEAVEFLLNDDGTYSILIKNIEDIKTK, MGSDKIHHHHHHMLENTGLVLEGGGMRGVYTGGILEYFMEQDLYFPYVIGVSAGACHAASYLSRQRNRNKTVNIDYASHPKYLSYKNLWRKRQLFDMDFIFHEIPEKHVPFDFETYFNSPERFLVGTTDCETGQSVYFEKEGTNDDALNLLQASSSLPFIAPVVNYRGKQLLDGGISDPIPVRKAQEDGFKKSVVILTRNHGYAKKKSRFGWIAAKAYKKYPNLVNTMLNRYEVYNETLHYIEKEEQAGNLFVIRPEVPLQVDRMEKDTAKLQNLYEQGYEDAKRQFADLKAFLQK, MGSDKIHHHHHHMLFFSFILLPELDVTMEDSGRRIKNEYRAWKERKMTKLTVGLALGSGAAKGWAHIGVLNGLAKLDIYPDKVAGCSVGALVGAAYANNHLGELETWVSGFSSWDVLGLMDLGWRKGGLISGEKVFDVLANRIGDIDIEQLNRPFAAVATDLYSGQEIWFKEGDLRHAVRASCSMPGFLPPVQQGHRWVVDGAVVNPVPVSLARSMGVDVVIAVDLNGHRRGQMHLIPEQVKSRKASKSEPIDEKRELESGFMDLWGKGKDYMNGLTDKFSLGSSKSHPGMLAVMSQSMDILEQRHKRSRLMGEPPDICIVPDVGDIGTMEFHRAKEAIKAGEQAVNDIKHLIEATLK, MGSDKIHHHHHHMLFLQNTPLPEIIDGLPNISGWEAEVLSVVNNDAPVFLPTTNIKLEDVNAVFAIALHMHQPTIPAGDGGELISNLQYMFAHPHEGDNHNAGPFAYCYSRMGEFIPELVSQGCNPRVMLDYSGNLLWGLRQMGRNDVLDSLKGVTGDRTYQPHVEWLGTMWGHAVVPSTPIKDIKLHILAWQQHFAAIFGWEALARVKGFSPPEMHLPNHPDTLFQFVKALKECGYRWLLVQEHTVETIDGQSLTNRHLPHRLLARNSQGETISIIALIKTQGSDTKLVAQMQPYYEAKTLSKRRLGNVEIPPIVSQIGDGENGGVMMNEFPSAFKQAWWDMVNHGGGKSGVVGVCGTEYLELIEAAGVKPEDFPSCQPVGQHQIWQRVAPDNNQPEAVENAIQEIKQINPNFHLEGASWTNHISWVRGYENVLSPMYELSSLFHQKFDNLLLNNSYSSITKQPDYRQALLYNLLLQTSCFRYWGQGAWTDYAREIYQRGKSLLTS
